Measured values from patent US20050164185A1 (YEDA RESEARCH AND DEVELOPMENT CO LTD AT WEIZMANN INSTITUTE …, published 2005).
One block for each binder: values may come before it.

B3: interferon beta (wild type, glycosylated, produced in CHO) (ligand, human, UniProt P01574 22-187, looked up)
chain: MSYNLLGFLQRSSNFQCQKLLWQLNGRLEYCLKDRMNFDIPEEIKQLQQFQKEDAALTIYEMLQNIFAIFRQDSSSTGWNETIVENLLANVYHQINHLKTVLEEKLEKEDFTRGKLMSSLHLKRYYGRILHYLKAKEYSHCAWTIVRVEILRNFYFINRLTGYLRN
modifications: glycosylated (site not stated)
notes: also called IFNβ; IFN-β

Columns and labels:
[1] = target: B3; test: RifS, IFNAR2-EC immobilised through antibodies
[2] = target: B3; test: RifS, IFNAR2-EC immobilised through antibodies, 500 mM NaCl, pH 7.4
[3] = target: B3; test: cell-based or functional assay
[4] = target: T1, wild type IFNAR2-EC (extracellular domain of human IFNAR2) (human, UniProt P48551 28-237); test: RifS, IFNAR2-EC immobilised through antibodies, 500 mM NaCl, pH 7.4
T1 construct: Expressed in E. coli, non-glycosylated; also called wt; WT protein
T1 sequence: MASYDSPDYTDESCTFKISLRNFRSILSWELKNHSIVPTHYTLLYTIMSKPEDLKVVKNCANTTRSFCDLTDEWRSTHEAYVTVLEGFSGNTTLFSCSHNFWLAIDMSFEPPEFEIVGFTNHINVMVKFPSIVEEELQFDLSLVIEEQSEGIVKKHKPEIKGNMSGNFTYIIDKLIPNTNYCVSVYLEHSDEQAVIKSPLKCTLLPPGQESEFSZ

- fold higher affinity than wild type [1]: ~100 fold
- Kd [2]: ~0.03 nM
B1: IFNAR2 EC H78A/N100A mutant (receptor)
chain: MASYDSPDYTDESCTFKISLRNFRSILSWELKNHSIVPTHYTLLYTIMSKPEDLKVVKNCANTTRSFCDLTDEWRSTAEAYVTVLEGFSGNTTLFSCSHAFWLAIDMSFEPPEFEIVGFTNHINVMVKFPSIVEEELQFDLSLVIEEQSEGIVKKHKPEIKGNMSGNFTYIIDKLIPNTNYCVSVYLEHSDEQAVIKSPLKCTLLPPGQESEFSZ
notes: also called R2 H78A/N100A; MIFNAR2 EC

- IC50 (read off the curve) [3]: ~0.4 nM
B2: IFNAR2 EC H78A/N100D mutant (receptor)
chain: MASYDSPDYTDESCTFKISLRNFRSILSWELKNHSIVPTHYTLLYTIMSKPEDLKVVKNCANTTRSFCDLTDEWRSTAEAYVTVLEGFSGNTTLFSCSHDFWLAIDMSFEPPEFEIVGFTNHINVMVKFPSIVEEELQFDLSLVIEEQSEGIVKKHKPEIKGNMSGNFTYIIDKLIPNTNYCVSVYLEHSDEQAVIKSPLKCTLLPPGQESEFSZ

Binder: B3
- Kd [4]: ~3 nM
